Measured values: the supplement of paper PMC7877785
± gives the uncertainty stated by the source.

Assay: self-splicing fitness, log relative to wild type (ln ratio); higher = more splicing; Tetrahymena group I intron in knt gene, E. coli kanamycin selection, DiMSum; sequences stand for … in CUCUCU…GGAGGGAAAAGUUAUCAGGCAUGCACCUGGUAGCUAGUCUUUAAACCAAUAGAUUGCAUCGGUUUAAAAGGCAAGACCGUCAAAUUGCGGGAAAGGGGUCAACAGCCGUUCAGUACCAAGUCUCAGGGGAAACUUUGAGAUGGCCUUGCAAAGGGUAUGGUAAUAAGCUGACGGACAUGGUCCUAACCACGCAGCCAAGUCCUAAGUCAACAGAUCUUCUGUUGAUAUGGAUGCAGUUCACAGACUAAAUGUCGGUCGGGGAAGAUGUAUUCUUCUCAUAAGAUAUAGUCGGACCUCUCCUUAAUGGGAGCUAGCGGAUGAAGUGAUGCAACACUGGAGCCGCUGGGAACUAAUUUGUAUGCGAAAGUAUAUUGAUUAGUUUUGGAGUACUCGUGGUCG
Method in brief: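 DiMSum derived fitness as the error-weighted combination of fold changes across replicates, kanamycin versus no kanamycin, normalised to wild type. E. coli BL21(DE3) held the library, which randomised all eight P1ex-region intron nucleotides within the knt kanamycin-resistance gene on pET-22b(+). Six replicate transformations grew overnight at 37°C or 30°C on LB agar with or without 25 μg/mL kanamycin, also containing 100 μg/mL carbenicillin, 50 μM IPTG and 0.2% rhamnose, and pooled colonies were amplicon-sequenced on an Illumina HiSeq 2500.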

Sequence	self-splicing fitness (ln) (30 °C)	self-splicing fitness (ln) (37 °C)
GAACAGCAAUAUUACGUUCC	-2.88 ± 0.36	–
GAACAGCAAUAUUACGUUCG	-2.12 ± 0.099	-1.38 ± 0.096
GAACAGCAAUAUUACGUUUA	-0.588 ± 0.07	-0.031 ± 0.078
GAAGAGCAAUAUUACGACAG	-3.36 ± 0.29	-2.76 ± 0.28
GAAGAGCAAUAUUACGACUC	-0.32 ± 0.095	-0.113 ± 0.11
GAAGAGCAAUAUUACGACUG	-3.86 ± 0.39	-1.88 ± 0.16
GAAGAGCAAUAUUACGAUAU	-4.88 ± 0.36	-1.06 ± 0.14
GAAGAGCAAUAUUACGCCUC	-3.27 ± 0.32	-2.96 ± 0.32
GAAGAGCAAUAUUACGCGGA	-2.64 ± 0.17	-2.37 ± 0.21
GAAGAGCAAUAUUACGCGUA	-3.68 ± 0.37	-2.05 ± 0.22
GAAGAGCAAUAUUACGCUGU	-3.82 ± 0.3	-2.6 ± 0.29
GAAGAGCAAUAUUACGCUUC	-2.47 ± 0.34	-1.37 ± 0.18
GAAGAGCAAUAUUACGCUUG	-2.25 ± 0.13	-1.3 ± 0.14
GAAGAGCAAUAUUACGGACG	-2.59 ± 0.27	–
GAAGAGCAAUAUUACGGCCG	-2.63 ± 0.42	-0.854 ± 0.29
GAAGAGCAAUAUUACGGGAU	-3.63 ± 0.22	-3.16 ± 0.3
GAAGAGCAAUAUUACGGGGU	-3.09 ± 0.34	-1.83 ± 0.28
GAAGAGCAAUAUUACGUAAU	-3.03 ± 0.2	-1.22 ± 0.23
GAAGAGCAAUAUUACGUAUA	-2 ± 0.28	-3.5 ± 0.34
GAAGAGCAAUAUUACGUCGU	-2.96 ± 0.21	-2.24 ± 0.21
GAAGAGCAAUAUUACGUCUU	-4.83 ± 0.19	-2.4 ± 0.081
GAAGAGCAAUAUUACGUGGA	-2.05 ± 0.18	-2.54 ± 0.26
GAAGAGCAAUAUUACGUUAG	-2.19 ± 0.3	-2.59 ± 0.31
GAAUAGCAAUAUUACGAAGC	-3.17 ± 0.24	-2.54 ± 0.22

Sequence	self-splicing fitness (ln) (30 °C)	self-splicing fitness (ln) (37 °C)
GAAUAGCAAUAUUACGCAGG	-2.6 ± 0.2	-2.28 ± 0.21
GAAUAGCAAUAUUACGCAUU	-3.04 ± 0.22	-1.43 ± 0.2
GAAUAGCAAUAUUACGCGAG	-1.19 ± 0.087	-0.803 ± 0.096
GAAUAGCAAUAUUACGCUCA	-0.0838 ± 0.16	0.784 ± 0.18
GAAUAGCAAUAUUACGGACU	-0.83 ± 0.07	-0.397 ± 0.087
GAAUAGCAAUAUUACGGGAA	-2.97 ± 0.19	-0.92 ± 0.1
GAAUAGCAAUAUUACGGGCC	-1.6 ± 0.26	-1.13 ± 0.37
GAAUAGCAAUAUUACGGGGA	-2.99 ± 0.19	-2.39 ± 0.19
GAAUAGCAAUAUUACGGGGC	-3.15 ± 0.43	–
GAAUAGCAAUAUUACGGGGU	-3.77 ± 0.21	-3.71 ± 0.21
GAAUAGCAAUAUUACGGUUU	-1.03 ± 0.078	-1.11 ± 0.1
GAAUAGCAAUAUUACGUACU	-0.732 ± 0.11	-0.151 ± 0.12
GAAUAGCAAUAUUACGUAUA	-2.32 ± 0.15	-1.54 ± 0.15
GAAUAGCAAUAUUACGUUAU	-2.79 ± 0.12	-1.65 ± 0.14
GAAUAGCAAUAUUACGUUGU	-3.27 ± 0.14	-2.38 ± 0.16
GAAUAGCAAUAUUACGUUUC	-3.37 ± 0.19	-2.4 ± 0.29
GACAAGCAAUAUUACGAAUA	-2.03 ± 0.12	-1.17 ± 0.099
GACAAGCAAUAUUACGACCC	0.926 ± 0.23	-0.477 ± 0.39
GACAAGCAAUAUUACGAGGA	-3.16 ± 0.21	-2.42 ± 0.14
GACAAGCAAUAUUACGAGUU	-3.7 ± 0.15	-2.3 ± 0.16
GACAAGCAAUAUUACGAUUA	-0.415 ± 0.096	-0.117 ± 0.1
GACAAGCAAUAUUACGCACG	-2.2 ± 0.13	-1.07 ± 0.17
GACAAGCAAUAUUACGCCAU	-3.44 ± 0.4	-2.96 ± 0.26
GACAAGCAAUAUUACGCGCG	-0.648 ± 0.091	-0.467 ± 0.11
